Results on 3 proteins are retold here after PMC7181634, “Enhanced succinic acid production by Mannheimia employing optimal malate dehydrogenase” (Nature Communications, 2020).

Substrate in data set [1]: O=C(O)CC(=O)C(=O)O
The experiment in a line: purified protein. The format is biochemical, [Mannheimia] succiniciproducens. Conditions: pH 7.0, 0.1 M Tris-HCl, NADH co-substrate, room temperature.

Substrate in data set [2]: O=C(O)CC(=O)C(=O)O
The experiment in a line: purified protein. The format is biochemical, Corynebacterium glutamicum. To be noted: pH 7.0, 0.1 M Tris-HCl, NADH co-substrate, room temperature.

B1: MsMDH ([Mannheimia] succiniciproducens MBEL55E) (protein)
chain: MKVAVLGAAGGIGQALALLLKLQLPAGSSLSLYDVAPVTPGVAKDLSHIPTDVVVEGFAGTDPSEALKGADIVLISAGVARKPGMTRADLFGVNAGIIRSLTEKVAEQCPKACVGIITNPVNAMVAIAAEVLKKAGVYDKRKLFGITTLDILRAETFIAELKGLDPTRVTIPVIGGHSGVTILPLLSQVQNVEWSSEEEIIALTHRIQNAGTEVVEAKAGGGSATLSMAQAAARFALALVKASQGAKVVECAYVEGDGKYARFFAQPVRLGTEGVEEYLTLGKLSAFEEKALNAMLETLQGDIKSGEDFING
notes: full length, C-terminal 6xHis (pET30a), expressed in E. coli BL21(DE3), Ni-NTA, ion exchange and size exclusion
The term Km denotes the substrate concentration at which the rate is half of its maximum. In general, kcat refers to the maximal rate divided by the concentration of active sites. By kcat/Km is commonly meant the turnover number divided by the Michaelis constant. For the protein B1, in “purified protein [1]”, the Km came out at 18.2 ± 10.5 µM, the kcat amounted to 376 ± 119 s⁻¹ and the kcat/Km turned out to be 2.07e+07 ± 4.5e+06 M⁻¹ s⁻¹.

B2: MsMDH ([Mannheimia] succiniciproducens MBEL55E; G11Q) (protein)
chain: MKVAVLGAAGQIGQALALLLKLQLPAGSSLSLYDVAPVTPGVAKDLSHIPTDVVVEGFAGTDPSEALKGADIVLISAGVARKPGMTRADLFGVNAGIIRSLTEKVAEQCPKACVGIITNPVNAMVAIAAEVLKKAGVYDKRKLFGITTLDILRAETFIAELKGLDPTRVTIPVIGGHSGVTILPLLSQVQNVEWSSEEEIIALTHRIQNAGTEVVEAKAGGGSATLSMAQAAARFALALVKASQGAKVVECAYVEGDGKYARFFAQPVRLGTEGVEEYLTLGKLSAFEEKALNAMLETLQGDIKSGEDFING
notes: as for B1
Consider B2, for which, in the data set “purified protein [1]”, the Km is 103.5 ± 25.9 µM, the kcat is 927 ± 152 s⁻¹ and the kcat/Km was found to be 9e+06 ± 400000 M⁻¹ s⁻¹.

B3: CgMDH (Corynebacterium glutamicum ATCC 13032) (protein)
chain: MNSPQNVSTKKVTVTGAAGQISYSLLWRIANGEVFGTDTPVELKLLEIPQALGGAEGVAMELLDSAFPLLRNITITADANEAFDGANAAFLVGAKPRGKGEERADLLANNGKIFGPQGKAINDNAADDIRVLVVGNPANTNALIASAAAPDVPASRFNAMMRLDHNRAISQLATKLGRGSAEFNNIVVWGNHSATQFPDITYATVGGEKVTDLVDHDWYVEEFIPRVANRGAEIIEVRGKSSAASAASSAIDHMRDWVQGTEAWSSAAIPSTGAYGIPEGIFVGLPTVSRNGEWEIVEGLEISDFQRARIDANAQELQAEREAVRDLL
notes: as for B1
On to B3, for which, in the data set “purified protein [2]”, the Km was determined as 46.1 ± 7.3 µM, the kcat worked out at 920 ± 77 s⁻¹ and the kcat/Km was 1.99e+07 ± 300000 M⁻¹ s⁻¹.
